# Assay results as given in patent US5811098, “Antibodies to HER4, human receptor tyrosine kinase” (Bristol-Myers Squibb Company, dated 1998).
# T1: p45, HER4 ligand purified from HepG2 conditioned medium (human, UniProt Q02297, 125I-labeled Bolton-Hunter reagent (in the binding and cross-linking assays))
# T1 sequence: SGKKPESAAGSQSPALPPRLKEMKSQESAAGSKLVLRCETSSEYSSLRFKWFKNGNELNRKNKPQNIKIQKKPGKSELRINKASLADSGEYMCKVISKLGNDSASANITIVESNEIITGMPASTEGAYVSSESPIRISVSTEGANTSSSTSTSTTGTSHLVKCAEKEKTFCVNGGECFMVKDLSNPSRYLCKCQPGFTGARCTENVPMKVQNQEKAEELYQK
# Columns and labels:
# [1] = biological target: T1, p45, HER4 ligand purified from HepG2 …; experiment: binding of 125I-p45 to CHO/HER4 cell monolayers, 2 h at 4° C, Scatchard analysis (LIGAND program)
# HER2/p185erbB2 (human) = HER2/p185erbB2 (human) (human); experiment: cell-based or functional assay
# HER3/p160erbB3 (human) = HER3/p160erbB3 (human) (human); experiment: cell-based or functional assay
binder,measurement,setting,value
HER4/p180erbB4 (human prototype HER4) (receptor) QSVCAGTENKLSSLSDLEQQYRALRKYYENCEVVMGNLEITSIEHNRDLSFLRSVREVTGYVLVALNQFRYLPLENLRIIRGTKLYEDRYALAIFLNYRKDGNFGLQELGLKNLTEILNGGVYVDQNKFLCYADTIHWQDIVRNPWPSNLTLVSTNGSSGCGRCHKSCTGRCWGPTENHCQTLTRTVCAEQCDGRCYGPYVSDCCHRECAGGCSGPKDTDCFACMNFNDSGACVTQCPQTFVYNPTTFQLEHNFNAKYTYGAFCVKKCPHNFVVDSSSCVRACPSSKMEVEENGIKMCKPCTDICPKACDGIGTGSLMSAQTVDSSNIDKFINCTKINGNLIFLVTGIHGDPYNAIEAIDPEKLNVFRTVREITGFLNIQSWPPNMTDFSVFSNLVTIGGRVLYSGLSLLILKQQGITSLQFQSLKEISAGNIYITDNSNLCYYHTINWTTLFSTINQRIVIRDNRKAENCTAEGMVCNHLCSSDGCWGPGPDQCLSCRRFSRGRICIESCNLYDGEFREFENGSICVECDPQCEKMEDGLLTCHGPGPDNCTKCSHFKDGPNCVEKCPDGLQGANSFIFKYADPDRECHPCHPNCTQGCNGPTSHDCIYYPWTGHSTLPQHARTPLIAAGVIGGLFILVIVGLTFAVYVRRKSIKKKRALRRFLETELVEPLTPSGTAPNQAQLRILKETELKRVKVLGSGAFGTVYKGIWVPEGETVKIPVAIKILNETTGPKANVEFMDEALIMASMDHPHLVRLLGVCLSPTIQLVTQLMPHGCLLEYVHEHKDNIGSQLLLNWCVQIAKGMMYLEERRLVHRDLAARNVLVKSPNHVKITDFGLARLLEGDEKEYNADGGKMPIKWMALECIHYRKFTHQSDVWSYGVTIWELMTFGGKPYDGIPTREIPDLLEKGERLPQPPICTIDVYMVMVKCWMIDADSRPKFKELAAEFSRMARDPQRYLVIQGDDRMKLPSPNDSKFFQNLLDEEDLEDMMDAEEYLVPQAFNIPPPIYTSRARIDSNRSEIGHSPPPAYTPMSGNQFVYRDGGFAAEQGVSVPYRAPTSTIPEAPVAQGATAEIFDDSCCNGTLRKPVAPHVQEDSSTQRYSADPTVFAPERSPRGELDEEGYMTPMRDKPKQEYLNPVEENPFVSRRKNGDLQALDNPEYHNASNGPPKAEDEYVNEPLYLNTFANTLGKAEYLKNNILSMPEKAKKAFDNPDYWNHSLPPRSTLQHPDYLQEYSTKYFYKQNGRIRPIVAENPEYLSEFSLKPGTVLPPPPYRHRNTVV,Kd,[1],~5 nM
"HAR-TX β2, chimeric heregulin-toxin protein (other) MVVKPPQNKTESENTSDKPKRKKKGGKNGKNRRNRSHLIKCAEKEKTFCVNGGECFTVKDLSNPSRYLCKCPNEFTGDRCQNYVMASFYKAEELYKLMAEEGGSLAALTAHQACHLPLETFTRHRQPRGWEQLEQCGYPVQRLVALYLAARLSWNQVDQVIRNALASPGSGGDLGEAIREQPEQARLALTLAAAESERFVRQGTGNDEAGAANADVVSLTCPVAAGECAGPADSGDALLERNYPTGAEFLGDGGDVSFSTRGTQNWTVERLLQAHRQLEERGYVFVGYHGTFLEAAQSIVFGGVRARSQDLDAIWRGFYIAGDPALAYGYAQDQEPDARGRIRNGALLRVYVPRSSLPGFYRTSLTLAGGEAAGEVERLIGHPLPLRLDAITGPEEEGGRLETILGWPLAERTVVIPSAIPTDPRNVGGDLDPSSIPDKEQAISALPDYASQPGKPPREDLK","EC50 of cytotoxicity, H3396 cells",HER2/p185erbB2 (human),> 2 mg/L
same,"EC50 of cytotoxicity, L2987 cells",HER2/p185erbB2 (human),> 2 mg/L
same,"EC50 of cytotoxicity, SK0V3 cells",HER2/p185erbB2 (human),> 2 mg/L
same,"EC50 of cytotoxicity, H3396 cells",HER3/p160erbB3 (human),> 2 mg/L
same,"EC50 of cytotoxicity, L2987 cells",HER3/p160erbB3 (human),> 2 mg/L
same,"EC50 of cytotoxicity, SK0V3 cells",HER3/p160erbB3 (human),> 2 mg/L
